In US20190145987A1 (UNIVERSIT LIBRE DE BRUXELLES, published 2019):

Target: human DPP6 protein (human, UniProt P42658 117-865, limits assumed)
Test: affinity versus the human DPP6 protein; method not stated

Chain of human DPP6 protein (P42658 117-865 limits assumed): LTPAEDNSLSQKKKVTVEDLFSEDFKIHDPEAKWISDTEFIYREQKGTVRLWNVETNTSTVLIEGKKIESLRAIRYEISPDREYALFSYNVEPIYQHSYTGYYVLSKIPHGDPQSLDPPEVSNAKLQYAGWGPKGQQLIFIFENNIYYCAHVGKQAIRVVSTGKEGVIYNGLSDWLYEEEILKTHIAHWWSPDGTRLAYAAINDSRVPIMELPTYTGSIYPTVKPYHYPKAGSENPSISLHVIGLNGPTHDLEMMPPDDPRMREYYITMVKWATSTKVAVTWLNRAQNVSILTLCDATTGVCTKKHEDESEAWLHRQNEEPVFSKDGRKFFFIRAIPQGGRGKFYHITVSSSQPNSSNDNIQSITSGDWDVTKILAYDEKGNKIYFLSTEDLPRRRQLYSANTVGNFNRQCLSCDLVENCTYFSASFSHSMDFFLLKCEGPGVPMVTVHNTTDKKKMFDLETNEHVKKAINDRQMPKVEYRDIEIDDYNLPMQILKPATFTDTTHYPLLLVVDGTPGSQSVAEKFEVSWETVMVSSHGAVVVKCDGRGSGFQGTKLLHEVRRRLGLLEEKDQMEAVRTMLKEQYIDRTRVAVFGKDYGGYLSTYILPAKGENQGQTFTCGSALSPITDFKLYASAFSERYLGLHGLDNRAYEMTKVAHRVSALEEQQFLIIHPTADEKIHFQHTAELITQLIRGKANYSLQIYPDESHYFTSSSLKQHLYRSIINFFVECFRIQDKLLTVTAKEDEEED

B1: nanobody 4hD29 (VHH)
VHH: QVQLQESGGGLVQPGGSLRLSCAASGFTFSSNYMTWVRQAPGKGPEWVSGINPDGSSTYYADSVKGRFTISRDNAKNTLYLQMNSLKSEDTALYKCATGAAPRIPTTLRGQGTQVTVSS
notes: also called Nb 4hD29; 4hD29 Nb
- Kd: 1.2 nM
